For one data set, the system named is SUV420H1(1-335) (human). The data set is described as follows: MST. Conditions: histone H4 K20M; MST: 20 mM HEPES pH 7.5, 50 mM NaCl (listed twice), 50 mM KCl, 1 mg/mL BSA, 0.05% Tween-20, 40 uM SAM, 2 mM DTT, room temperature; EMSA: 25 mM HEPES pH 7.5 …. Background: In EMSA bound probe runs differently from free probe, usually more slowly.
Data set [1] addresses SUV420H1(1-390) wild type (human) (UniProt Q4FZB7). Briefly: MST. Conditions: MST: 20 mM HEPES pH 7.5, 50 mM NaCl (listed twice), 50 mM KCl, 1 mg/mL BSA, 0.05% Tween-20, 40 uM SAM, 2 mM DTT, room temperature, EMSA: 25 mM HEPES pH 7.5 ….
The test system of another data set is SUV420H1(63-390) (human). Briefly: MST. Conditions: histone H4 K20M; MST: 20 mM HEPES pH 7.5, 50 mM NaCl (listed twice), 50 mM KCl, 1 mg/mL BSA, 0.05% Tween-20, 40 uM SAM, 2 mM DTT, room temperature; EMSA: 25 mM HEPES pH 7.5 ….
For data set [2], the target named is SUV420H1(1–390), wild type, with N-terminal 6× His-TEV tag (human) (UniProt Q4FZB7). Briefly: MST; His-tagged SUV420H1 labelled with RED-tris-NTA (50 nM protein, 10 nM dye) kept constant; nucleosomes serially diluted from 6 μM to 45.75 pM; 20 mM HEPES pH 7.5, 50 mM NaCl, 50 mM KCl, 1 mg/mL BSA, 0.05% Tween-20, 40 μM SAM, 2 mM DTT; room temperature; triplicate.
The target of data set [3] is SUV420H1(1–390) R357A (human) (UniProt Q4FZB7). Described as above.
The target of data set [4] is SUV420H1(1–390) R257A (human) (UniProt Q4FZB7). Described as above.
Data set [5] deals with SUV420H1(1–390) S283L (human) (UniProt Q4FZB7). The data set is described as above.
Data set [6] has as its target SUV420H1(1–390) R357H (human) (UniProt Q4FZB7). Described as above.
Data set [7] has as its target SUV420H1(1–390) S255F (human) (UniProt Q4FZB7). The data set is described as above.
Data set [8] addresses SUV420H1(1–390) Y349A (human) (UniProt Q4FZB7). The data set is described as above.
In a further data set the target is SUV420H1(63–390) (human) (UniProt Q4FZB7). The data set is described as above.
In data set [9] the target is SUV420H1(1–390) K258A (human) (UniProt Q4FZB7). The description is as above.
Data set [10] deals with SUV420H1(1–390) R220A (human) (UniProt Q4FZB7). The data set is described as above.
The next data set addresses SUV420H1(1–335) (human) (UniProt Q4FZB7). The data set is described as above.
The target in data set [11] is SUV420H1(1–390) R286A (human) (UniProt Q4FZB7). The description is as above.
Data set [12] concerns the target SUV420H1(1–390) R352A (human) (UniProt Q4FZB7). The description is as above.

This is an account of results in publication PMC10697951.

Chain of SUV420H1(1–390), wild type, with N-terminal 6× His-TEV tag (human) (Q4FZB7 1-390): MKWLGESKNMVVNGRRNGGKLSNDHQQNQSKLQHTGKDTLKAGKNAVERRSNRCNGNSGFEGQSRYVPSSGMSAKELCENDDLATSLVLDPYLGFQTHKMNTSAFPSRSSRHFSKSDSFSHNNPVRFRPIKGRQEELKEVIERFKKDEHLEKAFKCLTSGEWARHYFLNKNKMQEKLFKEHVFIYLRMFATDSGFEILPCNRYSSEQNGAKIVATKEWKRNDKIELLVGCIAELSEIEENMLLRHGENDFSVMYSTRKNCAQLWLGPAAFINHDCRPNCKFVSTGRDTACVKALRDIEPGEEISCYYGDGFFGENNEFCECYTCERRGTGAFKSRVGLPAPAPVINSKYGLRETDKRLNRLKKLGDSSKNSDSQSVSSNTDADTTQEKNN
Chain of SUV420H1(1-390) wild type (human) (Q4FZB7 1-390): as above
Chain of SUV420H1(1–390) R352A (human) (Q4FZB7 1-390 R352A): as the sequence (Q4FZB7 1-390) above, with R352A counted along it
Chain of SUV420H1(1–390) R357A (human) (Q4FZB7 1-390 R357A): as the sequence (Q4FZB7 1-390) above, with R357A counted along it
Chain of SUV420H1(1–390) R220A (human) (Q4FZB7 1-390 R220A): as the sequence (Q4FZB7 1-390) above, with R220A counted along it
Chain of SUV420H1(1–390) K258A (human) (Q4FZB7 1-390 K258A): as the sequence (Q4FZB7 1-390) above, with K258A counted along it
Chain of SUV420H1(1–390) R286A (human) (Q4FZB7 1-390 R286A): as the sequence (Q4FZB7 1-390) above, with R286A counted along it
Chain of SUV420H1(63–390) (human) (Q4FZB7 63-390): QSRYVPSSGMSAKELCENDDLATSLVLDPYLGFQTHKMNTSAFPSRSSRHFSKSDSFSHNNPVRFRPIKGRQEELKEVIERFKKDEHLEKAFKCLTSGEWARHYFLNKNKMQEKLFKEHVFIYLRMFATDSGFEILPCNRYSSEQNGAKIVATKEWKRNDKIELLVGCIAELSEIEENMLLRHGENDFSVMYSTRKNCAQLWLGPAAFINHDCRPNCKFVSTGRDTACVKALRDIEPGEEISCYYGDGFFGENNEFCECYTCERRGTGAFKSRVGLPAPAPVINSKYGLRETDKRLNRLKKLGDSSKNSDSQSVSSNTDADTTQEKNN
Chain of SUV420H1(1–390) R257A (human) (Q4FZB7 1-390 R257A): as the sequence (Q4FZB7 1-390) above, with R257A counted along it
Chain of SUV420H1(1–390) R357H (human) (Q4FZB7 1-390 R357H): as the sequence (Q4FZB7 1-390) above, with R357H counted along it
Chain of SUV420H1(1–390) Y349A (human) (Q4FZB7 1-390 Y349A): as the sequence (Q4FZB7 1-390) above, with Y349A counted along it
Chain of SUV420H1(1–390) S283L (human) (Q4FZB7 1-390 S283L): as the sequence (Q4FZB7 1-390) above, with S283L counted along it
Chain of SUV420H1(1–390) S255F (human) (Q4FZB7 1-390 S255F): as the sequence (Q4FZB7 1-390) above, with S255F counted along it
Chain of SUV420H1(1–335) (human) (Q4FZB7 1-335): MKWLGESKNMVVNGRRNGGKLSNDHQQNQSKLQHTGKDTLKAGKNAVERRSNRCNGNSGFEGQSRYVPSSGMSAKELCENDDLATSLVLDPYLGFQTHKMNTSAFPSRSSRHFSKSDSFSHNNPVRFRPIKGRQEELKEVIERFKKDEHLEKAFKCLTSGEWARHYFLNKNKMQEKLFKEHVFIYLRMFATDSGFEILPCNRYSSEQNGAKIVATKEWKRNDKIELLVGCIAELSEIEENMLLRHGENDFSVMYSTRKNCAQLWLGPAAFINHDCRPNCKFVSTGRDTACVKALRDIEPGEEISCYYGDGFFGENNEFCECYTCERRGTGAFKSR

Turning to NCP H2A, H4K20M, the equilibrium dissociation constant (Kd) (as a rule, a measure of binding affinity in units of concentration) is 292 nM in the data set with SUV420H1(1-335) (human), 62 nM in data set [1] (histone H4 K20M) and 410 nM with SUV420H1(63-390) (human).

As to “H2A.Z-containing nucleosome core particle with wild-type H4 (H4K20) (from UniProt P0C0S5 14-126; P06899 1-126; P68431 1-136; P62805 1-103) (complex)”, the Kd in data set [2] was 130 nM.

The substance NCP H2A.Z, H4K20 displayed a Kd in data set [1] (histone variant H2A.Z) of 130 nM.

With “H2A-containing nucleosome core particle with H4K20M (from UniProt P04908 16-130; P06899 1-126; P68431 1-136) (complex)”, the Kd is 213 nM in data set [3]; 144 nM in data set [4]; 85 nM in data set [5]; 62 nM in data set [2]; 83 nM in data set [6]; 182 nM in [7]. Moreover, the Kd in data set [8] turned out to be 108 nM; in the data set with SUV420H1(63–390) (human) it was 410 nM; in data set [9], 112 nM; in [10] it was 93 nM; in the data set with SUV420H1(1–335) (human) it was 292 nM; in data set [11] it was 323 nM. In data set [12], this substance yielded a Kd of 220 nM.

NCP H2A, H4K20 (canonical) came in with a Kd in data set [1] of 227 nM.

“H2A-containing nucleosome core particle with wild-type H4 (H4K20) (from UniProt P04908 16-130; P06899 1-126; P68431 1-136; P62805 1-103) (complex)” returned a Kd in [2] of 227 nM.
